Patent US20210380703A1
Residue numbers refer to the chain shown, from its start.

B1: 365_F07 (antibody, V domains shown)
VH: EVQLLESGGGLVQPGGSLRLSCAASGFTFSSYSMNWVRQAPGKGLEWVSNINYNGGYKSYADSVKGRFTISRDNSKNTLYLQMNSLRAEDTAVYYCARSATWHDTALDYWGQGTLVTVSS
VL: DIQMTQSPSSLSASVGDRVTITCRASQSILSYVNWYQQKPGKAPKLVIYAATSRASGVPSRFSGSGSGTDFTLTISSLQPEDFATYYCQQSYDLPLTFGGGTKVEIK
B2: 367_A09 (antibody, V domains shown)
VH: B1 VH with S30D, S33G, S49A, N50G, K58T, A106H
VL: B1 VL with A55H, L94T
B3: 373_E06 (antibody, V domains shown)
VH: B1 VH with S30D, S49A, N50G, G55S, A106H
VL: B1 VL with S31R, V33L, V47L, R54L, A55H, L94N
B4: 373_E04 (antibody, V domains shown)
VH: B1 VH with S30D, S49A, N50G, K58T, A106H
VL: B1 VL with S31T, V47L, D93N, L94S
B5: 367_G07 (antibody, V domains shown)
VH: B1 VH with S30D, S49A, K58T, S59G, A106H
VL: B1 VL with S31T, V47L, L94N
B6: 365_A10 (antibody, V domains shown)
VH: B1 VH with S33G, N35H, S49A, N50G, G55S, K58T, A106H
VL: B1 VL with S31T, V33L, A51V, R54L, L94S
B7: 368_E11 (antibody, V domains shown)
VH: B1 VH with S30D, S33G, N35H, S49A, K58T, A106H
VL: B1 VL with L30I, V47L, A55H, D93E
B8: 374_C05 (antibody, V domains shown)
VH: B1 VH with S30D, S49A, N50G, G55S, A106H
VL: B1 VL with L30I, S31R, V33L, L94N
B9: 366_B04 (antibody, V domains shown)
VH: B1 VH with S30D, S49A, N50G, S59G, A106H
VL: B1 VL with S31T, A55H, L94T
B10: 368_H01 (antibody, V domains shown)
VH: B1 VH with S49A, N50G, G55S, A106H
VL: B1 VL with V33L, V47L, A51T, R54L, L94N
B11: 369_E10 (antibody, V domains shown)
VH: B1 VH
VL: B1 VL
B12: 370_A09 (antibody, V domains shown)
VH: B1 VH with S49A, N50G, K58T, S59G, A106H
VL: B1 VL with S31T, V33L, L94T
B13: 375_B04 (antibody, V domains shown)
VH: B1 VH with S30D, S49A, K58T, S59G, A106H
VL: B1 VL with S31T, V33L, V47L, L94N
B14: 373_H10 (antibody, V domains shown)
VH: B1 VH with S49A, N50G, K58T, S59G, A106H
VL: B1 VL with V47L, D93S
B15: 376_B06 (antibody, V domains shown)
VH: B1 VH with S49A, N50G, G55S, S59G, A106H
VL: B1 VL with S31T, V33L, V47L
B16: 370_E07 (antibody, V domains shown)
VH: B1 VH with S30D, S49A, K58T, S59G, A106H
VL: B1 VL with S31T, V33L, V47L, L94N
B17: 369_G07 (antibody, V domains shown)
VH: B1 VH with S49A, N50G, K58T, A106H
VL: B1 VL with S31T, L94N
B18: 375_G07 (antibody, V domains shown)
VH: B1 VH with S30D, S49A, N50G, G55S, K58T, A106H
VL: B1 VL with V33L, R54L
B19: 372_F07 (antibody, V domains shown)
VH: B1 VH with S30D, S31D, S49A, N50G, G55S, S59G, A106H
VL: B1 VL with S31T, V33L, D93E
B20: 368_G09 (antibody, V domains shown)
VH: B1 VH with S30D, S33G, N35H, S49A, K58T, A106H
VL: B1 VL with L30V, V33L, L94T
B21: 365_D05 (antibody, V domains shown)
VH: B1 VH with S30D, S49A, N50G, K58T, A106H
VL: B1 VL with S31T, V47L, D93N, L94S
B22: 373_B03 (antibody, V domains shown)
VH: B1 VH with S49A, N50G, G55S, A106H
VL: B1 VL with S31T, V33L, R54L, L94N
B23: 365_B09 (antibody, V domains shown)
VH: B1 VH with S30D, S49A, N50G, G55S, A106H
VL: B1 VL with S31R, V33L, V47L, R54L, A55H, L94N
B24: 370_F08 (antibody, V domains shown)
VH: B1 VH with S30D, S49A, N50G, K58T, A106H
VL: B1 VL with L30I, V47L, A55H, D93N
B25: 370_H03 (antibody, V domains shown)
VH: B1 VH with S30D, S49A, N50G, G55S, S59G, A106H
VL: B1 VL with S31T, V33L, V47L, R54L, L94T
B26: 365_A07 (antibody, V domains shown)
VH: B1 VH with S33G, S49A, N50G, G55S, S59G, A106H
VL: B1 VL with L30V, V33L, V47L, D93N
B27: 371_G03 (antibody, V domains shown)
VH: B1 VH with S33G, S49A, S59G, A106H
VL: B1 VL with L30V, S31T, R54L, D93N
B28: 369_A05 (antibody, V domains shown)
VH: B1 VH with S49A, N50G, K58T, S59G, A106H
VL: B1 VL with S31T, D93E, L94S
B29: 371_F05 (antibody, V domains shown)
VH: B1 VH with S49A, N50G, G55S, A106H
VL: B1 VL with V33L, V47L, A55H, D93E, L94N
B30: 366_A03 (antibody, V domains shown)
VH: B1 VH with S30D, S49A, N50G, G55S, S59G, A106H
VL: B1 VL with L30S, V33L, V47L, R54L, D93S, L94N
B31: 374_D02 (antibody, V domains shown)
VH: B1 VH with S30D, S49A, N50G, G55S, K58T, A106H
VL: B1 VL with L30S, S31T, V47L, A51V, R54L, L94S
B32: 374_C04 (antibody, V domains shown)
VH: B1 VH with S49A, N50G, G55S, A106H
VL: B1 VL with S31T, V33L, V47L, T52S, R54L, A55Q, D93E
B33: 373_E03 (antibody, V domains shown)
VH: B1 VH with S30D, S33G, K58T, S59G
VL: B1 VL
B34: 373_C09 (antibody, V domains shown)
VH: B1 VH with S30D, S49A, N50G, G55S, A106H
VL: B1 VL with S31T, V33L, D93E
B35: 372_D04 (antibody, V domains shown)
VH: B1 VH with S49A, G55S, K58T, S59G, A106H
VL: B1 VL with S31T, V33L, V47L, R54L, A55H
B36: 365_F08 (antibody, V domains shown)
VH: B1 VH with S30D, S31D, S33G, S49A, K58T, A106H
VL: B1 VL with V47L, A55H, D93S
B37: 373_G05 (antibody, V domains shown)
VH: B1 VH with S49A, N50G, K58T, A106H
VL: B1 VL with V33L, V47L, R54L, D93E
B38: 365_B03 (antibody, V domains shown)
VH: B1 VH with S49A, N50G, K58T, S59G, A106H
VL: B1 VL with L30V, V33L, V47L, D93E, L94N
B39: 369_A10 (antibody, V domains shown)
VH: B1 VH with S30D, S49A, N50G, G55S, K58T, S59G, A106H
VL: B1 VL with V33L, V47L, D93E
B40: 373_B11 (antibody, V domains shown)
VH: B1 VH with S49A, G55S, S59G, A106H
VL: B1 VL with V33L, V47L, L94N
B41: 373_F03 (antibody, V domains shown)
VH: B1 VH with S30D, S49A, G55S, K58T, S59G, A106H
VL: B1 VL with S31T, V47L, A55H, L94S
B42: 367_F02 (antibody, V domains shown)
VH: B1 VH with S30D, S49A, K58T, A106H
VL: B1 VL with L30I, V47L, A55H, D93E, L94S
B43: 369_F07 (antibody, V domains shown)
VH: B1 VH with S30D, S49A, N50G, A106H
VL: B1 VL with D93E, L94S
B44: 375_C12 (antibody, V domains shown)
VH: B1 VH with S49A, K58T, S59G, A106H
VL: B1 VL with S31T, V33L, V47L
B45: 374_C11 (antibody, V domains shown)
VH: B1 VH with S49A, N50G, G55S, S59G, A106H
VL: B1 VL with S31T, V33L, V47L, D93E, L94S
B46: 373_B08 (antibody, V domains shown)
VH: B1 VH with S30D, S49A, G55S, S59G, A106H
VL: B1 VL with S31T, V33L, R54L, D93E, L94N
B47: 376_C11 (antibody, V domains shown)
VH: B1 VH with S30D, S49A, N50G, G55S, A106H
VL: B1 VL with S31T, V33L, L94N
B48: 376_B01 (antibody, V domains shown)
VH: B1 VH with S30D, S49A, N50G, K58T, A106H
VL: B1 VL with S31T, D93N

Biological target: human Fc (human)
Test: ELISA; negative control

optical density [OD] | Binder
0.331 | B1
0.259 | B2
0.187 | B3
0.251 | B4
0.295 | B5
0.293 | B6
0.341 | B7
0.175 | B8
0.331 | B9
0.374 | B10
0.412 | B11
0.361 | B12
0.19 | B13
0.2 | B14
0.222 | B15
0.379 | B16
0.32 | B17
0.178 | B18
0.296 | B19
0.281 | B20
0.357 | B21
0.18 | B22
0.272 | B23
0.495 | B24

optical density [OD] | Binder
0.381 | B25
0.284 | B26
0.359 | B27
0.588 | B28
0.297 | B29
0.303 | B30
0.204 | B31
0.201 | B32
0.194 | B33
0.17 | B34
0.419 | B35
0.437 | B36
0.273 | B37
0.444 | B38
0.348 | B39
0.178 | B40
0.179 | B41
0.315 | B42
0.335 | B43
0.197 | B44
0.471 | B45
0.17 | B46
0.23 | B47
0.308 | B48
